# Test results published in US20170327594A1 (UNIVERSIT T STUTTGART, published 2017).
# T1: CEA (UniProt P06731 35-685, limits assumed)
# T1 construct: also called immobilized CEA; carcinoembryonic antigen
# T1 sequence (looked up): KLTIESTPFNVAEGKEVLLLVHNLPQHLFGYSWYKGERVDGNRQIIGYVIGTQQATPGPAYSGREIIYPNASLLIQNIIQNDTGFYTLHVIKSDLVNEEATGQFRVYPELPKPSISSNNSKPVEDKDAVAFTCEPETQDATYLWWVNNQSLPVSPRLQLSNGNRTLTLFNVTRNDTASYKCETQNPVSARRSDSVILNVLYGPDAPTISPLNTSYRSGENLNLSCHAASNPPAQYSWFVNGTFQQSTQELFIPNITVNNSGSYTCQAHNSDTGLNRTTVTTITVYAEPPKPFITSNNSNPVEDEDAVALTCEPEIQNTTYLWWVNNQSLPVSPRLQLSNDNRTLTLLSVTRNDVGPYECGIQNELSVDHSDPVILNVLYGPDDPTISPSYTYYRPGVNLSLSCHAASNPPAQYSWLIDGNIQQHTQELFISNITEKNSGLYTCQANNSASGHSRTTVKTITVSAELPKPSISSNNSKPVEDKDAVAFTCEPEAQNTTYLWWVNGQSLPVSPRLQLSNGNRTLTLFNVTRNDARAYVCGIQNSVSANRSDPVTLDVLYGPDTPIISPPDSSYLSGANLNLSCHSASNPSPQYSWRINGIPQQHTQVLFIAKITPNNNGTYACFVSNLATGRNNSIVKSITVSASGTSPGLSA
# T2: TNFR2-Fc fusion protein (Enbrel) (UniProt P20333 23-257)
# T2 construct: Commercial product Enbrel, coated at 1 ug/ml; not shown: Fc part of Enbrel
# T2 sequence (looked up): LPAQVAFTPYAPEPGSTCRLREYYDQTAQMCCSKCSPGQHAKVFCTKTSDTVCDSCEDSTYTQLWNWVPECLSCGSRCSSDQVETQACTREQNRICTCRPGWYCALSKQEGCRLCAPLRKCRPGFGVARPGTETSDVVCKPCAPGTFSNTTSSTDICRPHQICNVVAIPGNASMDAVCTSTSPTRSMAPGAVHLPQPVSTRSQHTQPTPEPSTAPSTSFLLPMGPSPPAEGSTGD
# Assays:
# [1] = molecular target: T1, CEA; test: ELISA on immobilized CEA
# Text: Bound antibodies were detected with an HRP-conjugated anti-His-tag antibody.
# A bispecific single-chain diabody (scDb)-EHD2 fusion protein was generated by fusing a scDb directed against CEA and human CD3 to the N-terminus of the EHD2 (FIG. 27a, b). The construct was cloned into mammalian expression vector pSecTagA and produced in stably transfected HEK293 cells. Protein was purified from the cell culture supernatant by immobilized metal affinity chromatography.
# [2] = molecular target: T3, EGFR-Fc fusion protein (UniProt P00533 25-645, limits assumed); test: ELISA on immobilized EGFR-Fc
# T3 construct: extracellular domain; also called Fc fusion protein of the extracellular region of EGFR; immobilized EGFR; not shown: Fc part
# [3] = molecular target: T4, HER2-Fc fusion protein (UniProt P04626 23-652, limits assumed); test: ELISA on immobilized HER2-Fc
# T4 construct: extracellular domain; also called Fc fusion protein of the extracellular region of HER2; not shown: Fc part
# [4] = molecular target: T5, recombinant TRAIL-R1 (receptor-Fc fusion protein) (UniProt O00220 24-239, limits assumed); test: ELISA on recombinant receptor-Fc
# T5 construct: also called TRAIL receptor 1; not shown: Fc part
# [5] = molecular target: T2, TNFR2-Fc fusion protein (Enbrel); test: ELISA on coated TNFR2-Fc (Enbrel)
# Experimental: FIG. 36: a-c) Purified TNF variants (a: MHD2-scTNFR2, b: EHD2-scTNFR2 with a 16 aa linker between EHD2 and scTNFR2 as well as c: EHD2-scTNFR2 with a 28 aa linker between EHD2 and scTNFR2) were analyzed by 8% SDS-PAGE under reducing (+2-ME) or non-reducing (−2-ME) conditions and stained with Coomassie. d) Binding studies with TNFR2-Fc fusion protein. Plates were coated with 1 μg/ml TNFR2-Fc fusion protein (Enbrel). TNF fusion proteins were incubated for 1 h at RT and bound TNF fusion proteins were detected using HRP-conjugated anti-TNF antibodies and TMB substrate (n=2).
Binder,binding result [1],binding result [5],further results
"Anti-CEAxCD3 scDb-EHD2 (bispecific antibody, Homodimer: scDb against CEA and human CD3 at the N-terminus of EHD2, His6; also called bispecific single-chain diabody (scDb)-EHD2 fusion protein) DAAQPAMAQVKLQQSGAELVRSGTSVKLSCTASGFNIKDSYMHWLRQGPEQGLEWIGWIDPENGDTEYAPKFQGKATFTTDTSSNTAYLQLSSLTSEDTAVYYCNEGTPTGPYYFDYWGQGTTVTVSSGGGGSDIQMTQSPSSLSASVGDRVTITCRASQDIRNYLNWYQQKPGKAPKLLIYYTSRLESGVPSRFSGSGSGTDYTLTISSLQPEDFATYYCQQGNTLPWTFGQGTKVEIKRGGGGSGGRASGGGGSEVQLVESGGGLVQPGGSLRLSCAASGYSFTGYTMNWVRQAPGKGLEWVALINPYKGVSTYNQKFKDRFTISVDKSKNTAYLQMNSLRAEDTAVYYCARSGYYGDSDWYFDVWGQGTLVTVSSGGGGSDIELTQSPAIMSASPGEKVTITCSASSSVSYMHWFQQKPGTSPKLWIYSTSNLASGVPARFSGSGSGTSYSLTISRMEAEDAATYYCQQRSSYPLTFGAGTKLELKRGSLGGSGGDFTPPTVKILQSSCDGGGHFPPTIQLLCLVSGYTPGTINITWLEDGQVMDVDLSTASTTQEGELASTQSELTLSQKHWLSDRTYTCQVTYQGHTFEDSTKKCADSNGGGSGGGTGSEFAAAHHHHHH",binds,,
"EHD2-scTRAIL (ligand, Bivalent homodimer of single-chain TRAIL at the C-terminus of EHD2, FLAG-tagged) DYKDDDDKGGGGSAAQPADFTPPTVKILQSSCDGGGHFPPTIQLLCLVSGYTPGTINITWLEDGQVMDVDLSTASTTQEGELASTQSELTLSQKHWLSDRTYTCQVTYQGHTFEDSTKKCADSNGGSGGEFTRGTSEETISTVQEKQQNISPLVRERGPQRVAAHITGTRGRSNTLSSPNSKNEKALGRKINSWESSRSGHSFLSNLHLRNGELVIHEKGFYYIYSQTYFRFQEEIKENTKNDKQMVQYIYKYTSYPDPILLMKSARNSCWSKDAEYGLYSIYQGGIFELKENDRIFVSVTNEHLIDMDHEASFFGAFLVGGGGSGGGSTSEETISTVQEKQQNISPLVRERGPQRVAAHITGTRGRSNTLSSPNSKNEKALGRKINSWESSRSGHSFLSNLHLRNGELVIHEKGFYYIYSQTYFRFQEEIKENTKNDKQMVQYIYKYTSYPDPILLMKSARNSCWSKDAEYGLYSIYQGGIFELKENDRIFVSVTNEHLIDMDHEASFFGAFLVGGGGSGGGSTSEETISTVQEKQQNISPLVRERGPQRVAAHITGTRGRSNTLSSPNSKNEKALGRKINSWESSRSGHSFLSNLHLRNGELVIHEKGFYYIYSQTYFRFQEEIKENTKNDKQMVQYIYKYTSYPDPILLMKSARNSCWSKDAEYGLYSIYQGGIFELKENDRIFVSVTNEHLIDMDHEASFFGAFLVG",,,binding result [2]: no binding; binding result [3]: no binding; binding result [4]: binds
MHD2-scTNFR2 (ligand) DAAQPAGGGAAAHHHHHHGGTGGGGSGGKLGGSGGAELPPKVSVFVPPRDGFFGNPRKSKLICQATGFSPRQIQVSWLREGKQVGSGVTTDQVQAEAKESGPTTYKVTSTLTIKESDWLGQSMFTCRVDHRGLTFQQNASSMCVPDGGGSGGGTGSEFLASSRTPSDKPVAHVVANPQAEGQLQWLNRRANALLANGVELRDNQLVVPSEGLYLIYSQVLFKGQGCPSTHVLLTHTISRIAVSYQTKVNLLSAIKSPCQRETPEGAEAKPWYEPIYLGGVFQLEKGDRLSAEINRPDYLNFRESGQVYFGIIALGGGGSSSRTPSDKPVAHVVANPQAEGQLQWLNRRANALLANGVELRDNQLVVPSEGLYLIYSQVLFKGQGCPSTHVLLTHTISRIAVSYQTKVNLLSAIKSPCQRETPEGAEAKPWYEPIYLGGVFQLEKGDRLSAEINRPDYLNFRESGQVYFGIIALGGGGSSSRTPSDKPVAHVVANPQAEGQLQWLNRRANALLANGVELRDNQLVVPSEGLYLIYSQVLFKGQGCPSTHVLLTHTISRIAVSYQTKVNLLSAIKSPCQRETPEGAEAKPWYEPIYLGGVFQLEKGDRLSAEINRPDYLNFRESGQVYFGIIAL,,binds,
"EHD2-scTNFR2-L16aa (ligand, Dimer of the TNFR2-selective single-chain TNF mutant (D143N/A145R) fused to EHD2, 16 aa linker; also called EHD2-scTNFR2 with a 16 aa linker between EHD2 and scTNFR2) DAAQPAGGGAAAHHHHHHGGTGGGGSGGKLGGSGGDFTPPTVKILQSSCDGGGHFPPTIQLLCLVSGYTPGTINITWLEDGQVMDVDLSTASTTQEGELASTQSELTLSQKHWLSDRTYTCQVTYQGHTFEDSTKKCADSNGGGSGGGTGSEFLASSRTPSDKPVAHVVANPQAEGQLQWLNRRANALLANGVELRDNQLVVPSEGLYLIYSQVLFKGQGCPSTHVLLTHTISRIAVSYQTKVNLLSAIKSPCQRETPEGAEAKPWYEPIYLGGVFQLEKGDRLSAEINRPDYLNFRESGQVYFGIIALGGGGSSSRTPSDKPVAHVVANPQAEGQLQWLNRRANALLANGVELRDNQLVVPSEGLYLIYSQVLFKGQGCPSTHVLLTHTISRIAVSYQTKVNLLSAIKSPCQRETPEGAEAKPWYEPIYLGGVFQLEKGDRLSAEINRPDYLNFRESGQVYFGIIALGGGGSSSRTPSDKPVAHVVANPQAEGQLQWLNRRANALLANGVELRDNQLVVPSEGLYLIYSQVLFKGQGCPSTHVLLTHTISRIAVSYQTKVNLLSAIKSPCQRETPEGAEAKPWYEPIYLGGVFQLEKGDRLSAEINRPDYLNFRESGQVYFGIIAL",,binds,
"EHD2-scTNFR2-L28aa (ligand, Dimer of the TNFR2-selective single-chain TNF mutant (D143N/A145R) fused to EHD2, 28 aa linker; also called EHD2-scTNFR2 with a 28 aa linker between EHD2 and scTNFR2) DAAQPAGGGAAAHHHHHHGGTGGGGSGGKLGGSGGDFTPPTVKILQSSCDGGGHFPPTIQLLCLVSGYTPGTINITWLEDGQVMDVDLSTASTTQEGELASTQSELTLSQKHWLSDRTYTCQVTYQGHTFEDSTKKCADSNGGGSGGGSGGGSGGGSGGGSGGSEFLASSRTPSDKPVAHVVANPQAEGQLQWLNRRANALLANGVELRDNQLVVPSEGLYLIYSQVLFKGQGCPSTHVLLTHTISRIAVSYQTKVNLLSAIKSPCQRETPEGAEAKPWYEPIYLGGVFQLEKGDRLSAEINRPDYLNFRESGQVYFGIIALGGGGSSSRTPSDKPVAHVVANPQAEGQLQWLNRRANALLANGVELRDNQLVVPSEGLYLIYSQVLFKGQGCPSTHVLLTHTISRIAVSYQTKVNLLSAIKSPCQRETPEGAEAKPWYEPIYLGGVFQLEKGDRLSAEINRPDYLNFRESGQVYFGIIALGGGGSSSRTPSDKPVAHVVANPQAEGQLQWLNRRANALLANGVELRDNQLVVPSEGLYLIYSQVLFKGQGCPSTHVLLTHTISRIAVSYQTKVNLLSAIKSPCQRETPEGAEAKPWYEPIYLGGVFQLEKGDRLSAEINRPDYLNFRESGQVYFGIIAL",,binds,
"Anti-CEA scFv-EHD2 (scFv, Bivalent homodimer, His6; also called scFv-EHD2 fusion protein directed against CEA) DAAQPAMAQVKLQQSGAELVRSGTSVKLSCTASGFNIKDSYMHWLRQGPEQGLEWIGWIDPENGDTEYAPKFQGKATFTTDTSSNTAYLQLSSLTSEDTAVYYCNEGTPTGPYYFDYWGQGTTVTVSSGGGGSGGGGSGGGGSDIELTQSPAIMSASPGEKVTITCSASSSVSYMHWFQQKPGTSPKLWIYSTSNLASGVPARFSGSGSGTSYSLTISRMEAEDAATYYCQQRSSYPLTFGAGTKLELKRGSLGGSGGDFTPPTVKILQSSCDGGGHFPPTIQLLCLVSGYTPGTINITWLEDGQVMDVDLSTASTTQEGELASTQSELTLSQKHWLSDRTYTCQVTYQGHTFEDSTKKCADSNGGGSGGGTGSEFAAAHHHHHH",binds,,
